Data reported in patent US10941182 (Amgen, dated 2021).
Starred links: 1 amine or outer side, 2 acyl side, 3 side chain; linkers in the order of their positions; H or OH if unused. Non-standard residues stand in square brackets, D forms with d. *: point of attachment. dBip = N[C@H](Cc1ccc(-c2ccccc2)cc1)C(=O)O; Oic = O=C(O)[C@@H]1C[C@@H]2CCCC[C@@H]2N1; Phe(4-Cl) = N[C@@H](Cc1ccc(Cl)cc1)C(=O)O; dPhe(4-Cl) = N[C@H](Cc1ccc(Cl)cc1)C(=O)O; Phe(4-I) = N[C@@H](Cc1ccc(I)cc1)C(=O)O; γGlu = O=C(O)[C@H](CCC(=O)[*:2])N[*:1]; C12 diacid = O=C(O)CCCCCCCCCCC(=O)*; NMeR = CN[C@@H](CCCNC(=N)N)C(=O)O; hArg = N=C(N)NCCCC[C@H](N)C(=O)O; Cha = N[C@@H](CC1CCCCC1)C(=O)O; NMeL = CN[C@@H](CC(C)C)C(=O)O; Nle = CCCC[C@H](N)C(=O)O; AEEA = NCCOCCOCC(=O)O; Aib = CC(C)(N)C(=O)O; Mpa = O=C(O)CCS

B1: SEQ ID NO: 65 (peptide)
peptide: Ac-RQRP[NMeR]LSHKGP[Nle]P[Phe(4-Cl)]-OH
SMILES: CCCC[C@H](NC(=O)[C@@H]1CCCN1C(=O)CNC(=O)[C@H](CCCCN)NC(=O)[C@H](Cc1c[nH]cn1)NC(=O)[C@H](CO)NC(=O)[C@H](CC(C)C)NC(=O)[C@H](CCCNC(=N)N)N(C)C(=O)[C@@H]1CCCN1C(=O)[C@H](CCCNC(=N)N)NC(=O)[C@H](CCC(N)=O)NC(=O)[C@H](CCCNC(=N)N)NC(C)=O)C(=O)N1CCC[C@H]1C(=O)N[C@@H](Cc1ccc(Cl)cc1)C(=O)O
B2: SEQ ID NO: 64 (peptide)
peptide: Ac-RQRPR[NMeL]SHKGP[Nle]P[Phe(4-Cl)]-OH
SMILES: CCCC[C@H](NC(=O)[C@@H]1CCCN1C(=O)CNC(=O)[C@H](CCCCN)NC(=O)[C@H](Cc1c[nH]cn1)NC(=O)[C@H](CO)NC(=O)[C@H](CC(C)C)N(C)C(=O)[C@H](CCCNC(=N)N)NC(=O)[C@@H]1CCCN1C(=O)[C@H](CCCNC(=N)N)NC(=O)[C@H](CCC(N)=O)NC(=O)[C@H](CCCNC(=N)N)NC(C)=O)C(=O)N1CCC[C@H]1C(=O)N[C@@H](Cc1ccc(Cl)cc1)C(=O)O
B3: SEQ ID NO: 94 (peptide)
peptide: SDFYKRLINKAKXXRRQRPRLSHKGXFPX
modifications: {Acetyl-NH}SDFYKRLINKAK[Aeea][Aeea][hArg]rQ[hArg]Pr[NMeLeu]SHKG[Oic][pI-Phe]P[D-Bip]{COOH}
B4: SEQ ID NO: 72 (peptide)
peptide: Ac-QR[NMeR]LSHKGP[Nle]P[Phe(4-Cl)]-OH
SMILES: CCCC[C@H](NC(=O)[C@@H]1CCCN1C(=O)CNC(=O)[C@H](CCCCN)NC(=O)[C@H](Cc1c[nH]cn1)NC(=O)[C@H](CO)NC(=O)[C@H](CC(C)C)NC(=O)[C@H](CCCNC(=N)N)N(C)C(=O)[C@H](CCCNC(=N)N)NC(=O)[C@H](CCC(N)=O)NC(C)=O)C(=O)N1CCC[C@H]1C(=O)N[C@@H](Cc1ccc(Cl)cc1)C(=O)O
B5: SEQ ID NO: 63 (peptide)
peptide: Ac-RQRPR[Cha]SHKGP[Nle]P[Phe(4-Cl)]-OH
SMILES: CCCC[C@H](NC(=O)[C@@H]1CCCN1C(=O)CNC(=O)[C@H](CCCCN)NC(=O)[C@H](Cc1c[nH]cn1)NC(=O)[C@H](CO)NC(=O)[C@H](CC1CCCCC1)NC(=O)[C@H](CCCNC(=N)N)NC(=O)[C@@H]1CCCN1C(=O)[C@H](CCCNC(=N)N)NC(=O)[C@H](CCC(N)=O)NC(=O)[C@H](CCCNC(=N)N)NC(C)=O)C(=O)N1CCC[C@H]1C(=O)N[C@@H](Cc1ccc(Cl)cc1)C(=O)O
B6: SEQ ID NO: 114 (peptide)
peptide: QRPRLSHKGPXPF
modifications: {H2}[MerPr](10K mPEG acetamide)QR[aMePro][hArg][aMeLeu]SHKGP[Nle]P[4-Cl-F]{COOH}
B7: SEQ ID NO: 66 (peptide)
peptide: Ac-RQRP[NMeR][Cha]SHKGP[Nle]P[Phe(4-Cl)]-OH
SMILES: CCCC[C@H](NC(=O)[C@@H]1CCCN1C(=O)CNC(=O)[C@H](CCCCN)NC(=O)[C@H](Cc1c[nH]cn1)NC(=O)[C@H](CO)NC(=O)[C@H](CC1CCCCC1)NC(=O)[C@H](CCCNC(=N)N)N(C)C(=O)[C@@H]1CCCN1C(=O)[C@H](CCCNC(=N)N)NC(=O)[C@H](CCC(N)=O)NC(=O)[C@H](CCCNC(=N)N)NC(C)=O)C(=O)N1CCC[C@H]1C(=O)N[C@@H](Cc1ccc(Cl)cc1)C(=O)O
B8: SEQ ID NO: 349 (peptide)
peptide: {C12 diacid}-[γGlu][AEEA][AEEA]Q[hArg]P[dR][NMeL]SHKG[Oic][Phe(4-I)]P[dBip]-OH
SMILES: CC(C)C[C@@H](C(=O)N[C@@H](CO)C(=O)N[C@@H](Cc1c[nH]cn1)C(=O)N[C@@H](CCCCN)C(=O)NCC(=O)N1[C@H](C(=O)N[C@@H](Cc2ccc(I)cc2)C(=O)N2CCC[C@H]2C(=O)N[C@H](Cc2ccc(-c3ccccc3)cc2)C(=O)O)C[C@@H]2CCCC[C@@H]21)N(C)C(=O)[C@@H](CCCNC(=N)N)NC(=O)[C@@H]1CCCN1C(=O)[C@H](CCCCNC(=N)N)NC(=O)[C@H](CCC(N)=O)NC(=O)COCCOCCNC(=O)COCCOCCNC(=O)CC[C@H](NC(=O)CCCCCCCCCCC(=O)O)C(=O)O
B9: SEQ ID NO: 116 (peptide)
peptide: QRPRLSHKGPXPF
modifications: {H2}[MerPr](10K mPEG acetamide)Q[NMehArg]P[NMeArg][aMeLeu]SHKGP[Nle]P[4-Cl-F]{COOH}
B10: SEQ ID NO: 67 (peptide)
peptide: Ac-RQRP[NMeR][NMeL]SHKGP[Nle]P[Phe(4-Cl)]-OH
SMILES: CCCC[C@H](NC(=O)[C@@H]1CCCN1C(=O)CNC(=O)[C@H](CCCCN)NC(=O)[C@H](Cc1c[nH]cn1)NC(=O)[C@H](CO)NC(=O)[C@H](CC(C)C)N(C)C(=O)[C@H](CCCNC(=N)N)N(C)C(=O)[C@@H]1CCCN1C(=O)[C@H](CCCNC(=N)N)NC(=O)[C@H](CCC(N)=O)NC(=O)[C@H](CCCNC(=N)N)NC(C)=O)C(=O)N1CCC[C@H]1C(=O)N[C@@H](Cc1ccc(Cl)cc1)C(=O)O
B11: SEQ ID NO: 62 (peptide)
peptide: Ac-RQRPRLSHKGP[Nle]P[dBip]-OH
SMILES: CCCC[C@H](NC(=O)[C@@H]1CCCN1C(=O)CNC(=O)[C@H](CCCCN)NC(=O)[C@H](Cc1c[nH]cn1)NC(=O)[C@H](CO)NC(=O)[C@H](CC(C)C)NC(=O)[C@H](CCCNC(=N)N)NC(=O)[C@@H]1CCCN1C(=O)[C@H](CCCNC(=N)N)NC(=O)[C@H](CCC(N)=O)NC(=O)[C@H](CCCNC(=N)N)NC(C)=O)C(=O)N1CCC[C@H]1C(=O)N[C@H](Cc1ccc(-c2ccccc2)cc1)C(=O)O
B12: SEQ ID NO: 112 (peptide)
peptide: QRPRLSHKGPXPF
modifications: {H2}[MerPr](10K mPEG acetamide)Q[hArg]P[NMeArg][aMeLeu]SHKGP[Nle]P[4-Cl-F]{COOH}
B13: SEQ ID NO: 61 (peptide)
peptide: Ac-Q[hArg]P[NMeR][Cha]SHKG[Oic][Nle]P[Phe(4-Cl)]-OH
SMILES: CCCC[C@H](NC(=O)[C@@H]1C[C@@H]2CCCC[C@@H]2N1C(=O)CNC(=O)[C@H](CCCCN)NC(=O)[C@H](Cc1c[nH]cn1)NC(=O)[C@H](CO)NC(=O)[C@H](CC1CCCCC1)NC(=O)[C@H](CCCNC(=N)N)N(C)C(=O)[C@@H]1CCCN1C(=O)[C@H](CCCCNC(=N)N)NC(=O)[C@H](CCC(N)=O)NC(C)=O)C(=O)N1CCC[C@H]1C(=O)N[C@@H](Cc1ccc(Cl)cc1)C(=O)O

Assays:
human APJ receptor = target: T1, human APJ receptor (human, UniProt P35414 1-380); test: cell-based or functional assay
T1 sequence (looked up): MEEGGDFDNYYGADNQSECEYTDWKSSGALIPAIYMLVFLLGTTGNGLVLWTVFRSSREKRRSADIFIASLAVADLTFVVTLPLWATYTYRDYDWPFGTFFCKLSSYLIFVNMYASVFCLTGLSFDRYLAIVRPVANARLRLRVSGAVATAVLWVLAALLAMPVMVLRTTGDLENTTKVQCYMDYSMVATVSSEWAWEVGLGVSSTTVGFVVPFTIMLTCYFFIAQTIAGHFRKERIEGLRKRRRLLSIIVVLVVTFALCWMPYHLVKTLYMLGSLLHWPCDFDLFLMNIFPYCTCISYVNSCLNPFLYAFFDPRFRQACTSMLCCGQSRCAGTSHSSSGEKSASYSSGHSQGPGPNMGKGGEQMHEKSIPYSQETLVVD

rat APJ receptor = target: T2, rat APJ receptor (rat, UniProt Q9JHG3 1-377); test: cell-based or functional assay
T2 sequence (looked up): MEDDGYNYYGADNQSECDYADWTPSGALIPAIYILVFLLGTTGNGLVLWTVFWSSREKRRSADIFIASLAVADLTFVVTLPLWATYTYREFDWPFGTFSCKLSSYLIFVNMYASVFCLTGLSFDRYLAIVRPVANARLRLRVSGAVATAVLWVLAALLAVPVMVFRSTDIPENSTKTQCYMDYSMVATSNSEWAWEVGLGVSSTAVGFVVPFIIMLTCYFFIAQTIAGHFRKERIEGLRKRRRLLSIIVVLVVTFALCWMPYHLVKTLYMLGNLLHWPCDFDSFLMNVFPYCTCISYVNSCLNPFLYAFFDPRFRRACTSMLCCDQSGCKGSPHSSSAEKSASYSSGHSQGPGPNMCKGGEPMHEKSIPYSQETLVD

Row | Binder | EC50 Human APJ Receptor (human APJ receptor) | EC50 Rat APJ Receptor (rat APJ receptor)
1 | RLIEDICLPRWGCLWXXQRPRLSHKGPXPF ({Acetyl-NH}RLIEDICLPRWGCLW[Aeea][Aeea]QRP[NMeArg]LSHKGP[Nle]P[4-Cl-F]{COOH}) [SEQ ID NO: 91] | 0.0357 nM | 0.124 nM
2 | B1 | 0.0302 nM | 0.122 nM
3 | QRPRLSHKGPXPF ({H2}[MerPr](10K mPEG acetamide)Q[hArg]P[NMehArg]LSHKGP[Nle]P[4-Cl-F]{COOH}) [SEQ ID NO: 113] | 12.1 nM | 49.3 nM
4 | B2 | 0.0555 nM | 0.411 nM
5 | RLIEDICLPRWGCLWEDDXXQRPRLSHKGPXPF ({Acetyl-NH}RLIEDICLPRWGCLWEDD[Aeea][Aeea]QRP[NMeArg]LSHKGP[Nle]P[4-Cl-F]{COOH}) [SEQ ID NO: 90] | 0.14 nM | 0.633 nM
6 | QRPRLSHKGPXPF ({H2}[MerPr](10K mPEG acetamide)QRP[NMeArg]LSHKGP[Nle]P[4-Cl-F]{COOH}) [SEQ ID NO: 115] | 1.66 nM | 6.49 nM
7 | {mPEG 10 kDa acetamide}-[Mpa][dQ][hArg]P[NMeR][Cha]SHKG[Oic][Nle]P[dPhe(4-Cl)]-OH (numbers in words are those of the source; also: N-terminus written {H2}) [SEQ ID NO: 111] | 1100 nM | 777 nM
8 | XXXQRPRLSHKGPXPF ({Dodecanoyl-NH}[AC4Abu][Aeea][Aeea]QRP[NMeArg]LSHKGP[Nle]P[4-Cl-F]{COOH}) [SEQ ID NO: 591] | 0.476 nM | 1.84 nM
9 | B3 | 1.34 nM | 1.33 nM
10 | Ac-QRP[NMeR][Cha]SHKG[Oic][Nle][Aib][Phe(4-Cl)]-OH [SEQ ID NO: 92] | 0.679 nM | 3.23 nM
11 | QRPRLSHKGPXPF ({H2}[MerPr](10K mPEG acetamide)QRP[hArg][aMeLeu]SHKGP[Nle]P[4-Cl-F]{COOH}) [SEQ ID NO: 117] | 19.7 nM | 117 nM
12 | QRPRXSHKGPXXF ({Acetyl-NH}qRP[NMeArg][Cha]SHKG[aMePro][Nle][Aib][4-Cl-F]{COOH}) [SEQ ID NO: 93] | 0.229 nM | 0.79 nM
13 | B4 | 1.36 nM | 40.6 nM
14 | {10K mPEG acetamide}-[Mpa]QRP[NMeR][Cha]SHKG[Oic][Nle][Aib][Phe(4-Cl)]-OH [SEQ ID NO: 120] | 63.2 nM | 258 nM
15 | B5 | 0.036 nM | 0.164 nM
16 | B6 | 0.848 nM | 3.46 nM
17 | QRPRLSHKGPXPF ({H2}[MerPr](10K mPEG acetamide)QrP[hArg][aMeLeu]SHKGP[Nle]P[4-Cl-F]{COOH}) [SEQ ID NO: 119] | 25.6 nM | 141 nM
18 | B7 | 0.0405 nM | 0.156 nM
19 | B8 | 64 nM | 47.8 nM
20 | B9 | 9.71 nM | 40.8 nM
21 | B10 | 0.185 nM | 1.4 nM
22 | B11 | 0.303 nM | 3.43 nM
23 | B12 | 2.32 nM | 10.4 nM
24 | B13 | 0.159 nM | 0.189 nM
